Results published in patent US20150064789.

What was measured:
Assay in all cases: cell_activity
[1] = tested on: CCR5 ZFN pair, wild-type ZC linker (8266 with partner) (artificial); conditions: average of 2
[2] = tested on: CCR5 ZFN pair, L6a linker (artificial); conditions: average of 2
[3] = tested on: CCR5 ZFN pair, L7a linker (artificial); conditions: average of 2
[4] = tested on: mROSA ZFN pair, Wt/Wt linkers (artificial); conditions: Neuro2A, CEL-I; replicates 23.2, 18.7; mock 0.4
[5] = tested on: mROSA ZFN pair, Wt/L7a linkers (artificial); conditions: Neuro2A, CEL-I; mock 0.4
[6] = tested on: rat IgM ZFN pair, L7a linker (artificial); conditions: rat C6 cells, CEL-I
[7] = tested on: rat IgM ZFN pair, ZC linkers (artificial); conditions: rat C6 cells, CEL-I

Row | Substance | activity [1] [% NHEJ] | activity [2] [% NHEJ] | activity [3] [% NHEJ] | further results
1 | CCR5 target, 4 bp gap | 1.2 |  |  | 
2 | CCR5 target, 5 bp gap | 35 | 39.3 |  | 
3 | CCR5 target, 6 bp gap | 11.1 | 25.4 | 31.8 | 
4 | GTCATCCTCATCCTGAGTTTAAACTGCAAAAG (double strand) [CCR5 target, 8 bp gap] |  |  | 6.1 | 
5 | GTCATCCTCATCCTGGTTTAAACTGCAAAAG (double strand) [CCR5 target, 7 bp gap] |  | 5.1 | 39.6 | 
6 | mROSA target, 6 bp gap |  |  |  | activity [4]: 22.6 % NHEJ; activity [5]: 7.5 % NHEJ
7 | rat IgM target, 6 bp gap |  |  |  | activity [6]: 2.43 % NHEJ; activity [7]: 1.93 % NHEJ
